Laboratory results taken from patent publication US20130202591A1 (ANAPTYSBIO, published 2013).

molecular target: T1, human IL-17 (human, UniProt Q16552 24-155); test: SPR (BIACORE), antibody captured by anti-human Fc, antigen in flow; grade: ++ strong binding, + binding, +/- close to background;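 note: antigen injected at two-fold dilutions from 50 nM over captured antibody at 30 µL/min, dissociation followed for 10 min, kinetics fitted with a 1:1 mass-transport model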
T1 construct: also called hIL-17; IL-17A
T1 sequence (Q16552 24-155 limits assumed): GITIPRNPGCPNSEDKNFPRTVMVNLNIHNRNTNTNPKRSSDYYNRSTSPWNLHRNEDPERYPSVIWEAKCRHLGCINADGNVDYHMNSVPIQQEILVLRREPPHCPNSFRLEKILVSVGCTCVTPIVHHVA
Text: BIACORE T100™ is used to determine antibody-antigen binding kinetics and affinity. The technology is based on surface plasmon resonance (SPR), an optical phenomenon that enables detection of label-free interactions in real time within a dextran biosensor matrix. It is therefore suited for measuring rate constants of association (kₒₙ) as well as dissociation (koff). All reagents and materials were purchased from GE Healthcare (Buckinghamshire, United Kingdom). […] 1×HBS-EP+ buffer (of 0.01M HEPES, 0.15M NaCl, 3 mM EDTA, 0.05% Polysorbate, pH 7.6) was used to reconstitute antigen at various concentrations (starting at 50 nM and using two-fold serial dilutions for each concentration). 210 μL of each antigen concentration was injected over captured antibody at a flow rate of 30 μL/min, then allowed to dissociate for 10 minutes. Surface was regenerated with 60 μL of 3M MgCl₂ after each cycle to establish baseline. Association and dissociation kinetic constants (kₐ and kd) were evaluated with “1:1 with mass transport” binding model in the BIACORE™ T100 Evaluation Software. The degree of binding for the BIACORE™ assay was measured as “++” (strong binding), “+” (binding), or “+/−” (close to background).

| Binder | binding result |
| --- | --- |
| MP4-9 (antibody, V domains shown, Captured by anti-human Fc) VH: EVQLVESGGGLVQPGGSLRLSCAASGFTFSNYWMSWVRQAPGKGLEWVAAIKQDGSEKYYVDSVKGRFTISRDNAKNSLYLQMNSLRAEDTAVYYCARDYYDILTDYYIHYWYFDLWGRGTLVTVSS VL: not shown | binds |
| MP4-6 (antibody, V domains shown, Captured by anti-human Fc) VH: EVQLVESGGGLVQPGGSLRLSCAASGFTFSSYWMSWVRQAPGKGLEWVANINQDGSEKYYVGSVKGRFTISRDNAKNSLYLQMNSLRAEDTAVYYCVRDYYDILTDYYIHYWYFDLWGRGTLVTVSS VL: not shown | binds |
| 1102/773 (antibody, V domains shown, Captured by anti-human Fc) VH: EVQLVESGGGLVQPGGSLRLSCAASGFTFSSYWMDWVRQAPGKGLEWVANIREDGSEKYYVDSVKGRFTISRDNAKNSLYLQMNSLRAEDTAVYYCARDYYDILTDYYIHYWYFDLWGRGTLVTVSS VL: not shown | binds |
| 1144/773 (antibody, V domains shown, Captured by anti-human Fc) VH: EVQLVESGGGLVQPGGSLRLSCAASGFTFSNHWMNWVRQAPGKGLEWVASIREDGSEKYYVDSVKGRFTISRDNAKNSLYLQMNSLRAEDTAVYYCARDYYDILTDYYIHYWYFDLWGRGTLVTVSS VL: not shown | binds |
| MP4-4 (antibody, V domains shown, Captured by anti-human Fc) VH: EVQLVESGGGLVQPGGSLRLSCAASGFTFSNYWMNWVRQAPGKGLEWVAAIKQDGSEKYYVGSVKGRFTISRDNAKNSLYLQMNSLRAEDTAVYYCARDYYDILTDYYIHYWYFDLWGRGTLVTVSS VL: not shown | binds |
| 1137/773 (antibody, V domains shown, Captured by anti-human Fc) VH: EVQLVESGGGLVQPGGSLRLSCAASGFTFSSYWMSWVRQTPGKGLEWVANIKQDGSEKYYVDSVKGRFTISRDNAKNSLYLQMNSLRAEDTAVYYCARDYYDILTDYYIHYWYFDLWGRGTLVTVSS VL: not shown | binds |
| 1139/773 (antibody, V domains shown, Captured by anti-human Fc) VH: EVQLVESGGGLVQPGGSLRLSCAASGFTFSSHWMSWVRQTPGKGLEWVASIKEDGSEKYYVDSVKGRFTISRDNAKNSLYLQMNSLRAEDTAVYYCARDYYDILTDYYIHYWYFDLWGRGTLVTVSS VL: not shown | binds |
| MP4-5 (antibody, V domains shown, Captured by anti-human Fc) VH: EVQLVESGGGLVQPGGSLRLSCAASGFTFSNYWMNWVRQAPGKGLEWVAAIKQDGSEKYYVGSVKGRFTISRDNAKNSLYLQMNSLRAEDTAVYYCVRDYYDILTDYYIHYWYFDLWGRGTLVTVSS VL: not shown | binds |
| 887/772 (antibody, V domains shown, Captured by anti-human Fc) VH: EVQLVESGGGLVQPGGSLRLSCAASGFTFSDYWMDWVRQAPGKGLEWVASIREDGSEKYYVDSVKGRFTISRDNAKNSLYLQMNSLRAEDTAVYYCARDYYDILTDYYIHYWYFDLWGRGTLVTVSS VL: not shown | binds |
| 1146/773 (antibody, V domains shown, Captured by anti-human Fc) VH: EVQLVESGGGLVQPGGSLRLSCAASGFTFSNYWMDWVRQAPGKGLEWVASIREDGSEKYYVGSVKGRFTISRDNAKNSLYLQMNSLRVEDTAVYYCVRDYYDILTDYYIHYWYFDLWGRGTLVTVSS VL: not shown | binds |
| MP4-23 (antibody, V domains shown, Captured by anti-human Fc) VH: EVQLVESGGGLVQPGGSLRLSCAASGFTFSSYWMNWVRQAPGKGLEWVAAIKQDGSEKYYVGSVKGRFTISRDNAKNSLYLQMNSLRAEDTAVYYCVRDYYDILTDYYIHYWYFDLWGRGTLVTVSS VL: not shown | binds |
| 1147/773 (antibody, V domains shown, Captured by anti-human Fc) VH: EVQLVESGGGLVQPGGSLRLSCAASGFTFSSYWMDWVRQAPGKGLEWVASIREDGSEKYYVDSVKGRFTISRDNAKNSLYLQMNSLRAEDTAVYYCARDYYDILTDYYIHYWYFDLWGRGTLVTVSS VL: not shown | binds |
| MP4-22 (antibody, V domains shown, Captured by anti-human Fc) VH: EVQLVESGGGLVQPGGSLRLSCAASGFTFSNYWMSWVRQAPGKGLEWVAAIKQDGSEKYYVDSVKGRFTISRDNAKNSLYLQMNSLRAEDTAVYYCVRDYYDILTDYYIHYWYFDLWGRGTLVTVSS VL: not shown | binds |
| 878/772 (antibody, V domains shown, Captured by anti-human Fc) VH: EVQLVESGGGLVQPGGSLRLSCAASGFTFSDYWMDWVRQAPGKGLEWVANIREDGSEKYYVDSVKGRFTISRDNAKNSLYLQMNSLRAEDTAVYYCARDYYDILTDYYIHYWYFDLWGRGTLVTVSS VL: not shown | binds |
| 847/842 (antibody, V domains shown, Captured by anti-human Fc) VH: EVQLVESGGGLVQPGGSLRLSCAASGFTFSSHWMSWVRQAPGKGLEWVASIKEDGSEKYYVDSVKGRFTISRDNAKNSLYLQMNSLRAEDTAVYYCARDYYDILTDYYIHYWYFDLWGRGTLVTVSS VL: not shown | binds |
| 1134/773 (antibody, V domains shown, Captured by anti-human Fc) VH: EVQLVESGGGLVQPGGSLRLSCAASGFTFSSYWMSWVRQTPGKGLEWVASIKQDGSEKYYVDSVKVRFTISRDNAKNSLYLQMNSLRAEDTAVYYCARDYYDILTDYYIHYWYFDLWGRGTLVTVSS VL: not shown | binds |
| MP4-21 (antibody, V domains shown, Captured by anti-human Fc) VH: EVQLVESGGGLVQPGGSLRLSCAASGFTFSNYWMNWVRQAPGKGLEWVANINQDGSEKYYVGSVKGRFTISRDNAKNSLYLQMNSLRAEDTAVYYCARDYYDILTDYYIHYWYFDLWGRGTLVTVSS VL: not shown | binds |

More lines, now with the values ahead:

| binding result | Binder |
| --- | --- |
| binds | MP4-2 (antibody, V domains shown, Captured by anti-human Fc) VH: EVQLVESGGGLVQPGGSLRLSCAASGFTFSSYWMSWVRQAPGKGLEWVAAINQDGSEKYYVGSVKGRFTISRDNAKNSLYLQMNSLRAEDTAVYYCVRDYYDILTDYYIHYWYFDLWGRGTLVTVSS VL: not shown |
| binds | 847/772 (antibody, V domains shown, Captured by anti-human Fc) VH: EVQLVESGGGLVQPGGSLRLSCAASGFTFSSHWMSWVRQAPGKGLEWVASIKEDGSEKYYVDSVKGRFTISRDNAKNSLYLQMNSLRAEDTAVYYCARDYYDILTDYYIHYWYFDLWGRGTLVTVSS VL: not shown |
| binds | MP4-20 (antibody, V domains shown, Captured by anti-human Fc) VH: EVQLVESGGGLVQPGGSLRLSCAASGFTFSNYWMSWVRQAPGKGLEWVAAIKQDGSEKYYVGSVKGRFTISRDNAKNSLYLQMNSLRAEDTAVYYCARDYYDILTDYYIHYWYFDLWGRGTLVTVSS VL: not shown |
| binds | MP4-10 (antibody, V domains shown, Captured by anti-human Fc) VH: EVQLVESGGGLVQPGGSLRLSCAASGFTFSNYWMSWVRQAPGKGLEWVAAIKQDGSEKYYVGSVKGRFTISRDNAKNSLYLQMNSLRAEDTAVYYCVRDYYDILTDYYIHYWYFDLWGRGTLVTVSS VL: not shown |
| binds | 1129/773 (antibody, V domains shown, Captured by anti-human Fc) VH: EVQLVESGGGLVQPGGSLRLSCAASGFTFSSYWMSWVRQAPGKGLEWVANIKQDGSEKYYVDSVKVRFTISRDNAKNSLYLQMNSLRAEDTAVYYCARDYYDILTDYYIHYWYFDLWGRGTLVTVSS VL: not shown |
| binds | 1142/773 (antibody, V domains shown, Captured by anti-human Fc) VH: EVQLVESGGGLVQPGGSLRLSCAASGFTFSDYWMDWVRQAPGKGLEWVASIREDGSEKYYVGSVKGRFTISRDNAKNSLYLQMNSLRVEDTAVYYCVRDYYDILTDYYIHYWYFDLWGRGTLVTVSS VL: not shown |
| binds | MP4-11 (antibody, V domains shown, Captured by anti-human Fc) VH: EVQLVESGGGLVQPGGSLRLSCAASGFTFSNYWMSWVRQAPGKGLEWVANIKQDGSEKYYVDSVKGRFTISRDNAKNSLYLQMNSLRAEDTAVYYCVRDYYDILTDYYIHYWYFDLWGRGTLVTVSS VL: not shown |
| binds | MP4-16 (antibody, V domains shown, Captured by anti-human Fc) VH: EVQLVESGGGLVQPGGSLRLSCAASGFTFSNYWMSWVRQAPGKGLEWVAAINQDGSEKYYVGSVKGRFTISRDNAKNSLYLQMNSLRAEDTAVYYCARDYYDILTDYYIHYWYFDLWGRGTLVTVSS VL: not shown |
| binds | MP4-17 (antibody, V domains shown, Captured by anti-human Fc) VH: EVQLVESGGGLVQPGGSLRLSCAASGFTFSNYWMSWVRQAPGKGLEWVANIKQDGSEKYYVDSVKGRFTISRDNAKNSLYLQMNSLRAEDTAVYYCARDYYDILTDYYIHYWYFDLWGRGTLVTVSS VL: not shown |
| binds | 846/773 (antibody, V domains shown, Captured by anti-human Fc) VH: EVQLVESGGGLVQPGGSLRLSCAASGFTFSNSWMTWVRQAPGKGLEWVASINHDGSEKHYVGSVKGRFTISRDNAKNSLYLQMNSLRVEDTAVYYCARDYYDILTDYYIHYWYFDLWGRGTLVTVSS VL: not shown |
| binds | MP4-8 (antibody, V domains shown, Captured by anti-human Fc) VH: EVQLVESGGGLVQPGGSLRLSCAASGFTFSNYWMSWVRQAPGKGLEWVANINQDGSEKYYVDSVKGRFTISRDNAKNSLYLQMNSLRAEDTAVYYCVRDYYDILTDYYIHYWYFDLWGRGTLVTVSS VL: not shown |
| binds | MP4-14 (antibody, V domains shown, Captured by anti-human Fc) VH: EVQLVESGGGLVQPGGSLRLSCAASGFTFSSYWMSWVRQAPGKGLEWVAAINQDGSEKYYVDSVKGRFTISRDNAKNSLYLQMNSLRAEDTAVYYCARDYYDILTDYYIHYWYFDLWGRGTLVTVSS VL: not shown |
| binds | 1153/773 (antibody, V domains shown, Captured by anti-human Fc) VH: EVQLVESGGGLVQPGGSLRLSCAASGFTFSSHWMSWVRQAPGKGLEWVASIKEDGSEKYYVDSVKVRFTISRDNAKNSLYLQMNSLRAEDTAVYYCARDYYDILTDYYIHYWYFDLWGRGTLVTVSS VL: not shown |
| binds | MP4-7 (antibody, V domains shown, Captured by anti-human Fc) VH: EVQLVESGGGLVQPGGSLRLSCAASGFTFSNYWMSWVRQAPGKGLEWVANINQDGSEKYYVGSVKGRFTISRDNAKNSLYLQMNSLRAEDTAVYYCVRDYYDILTDYYIHYWYFDLWGRGTLVTVSS VL: not shown |
| binds | 1143/773 (antibody, V domains shown, Captured by anti-human Fc) VH: EVQLVESGGGLVQPGGSLRLSCAASGFTFSNHWMNWVRQAPGKGLEWVAGIREDGSEKYYVDSVKGRFTISRDNAKNSLYLQMNSLRAEDTAVYYCARDYYDILTDYYIHYWYFDLWGRGTLVTVSS VL: not shown |
